The text below walks through data of US20150023979A1 (VALDOSPAN, published 2015).

For test [1], the target named is T1, HPV18 E7 protein, recombinant (His-TEV-E7 fusion from E. coli) (Human Papilloma Virus type 18 (HPV18), UniProt P06788 1-105, CKII phosphorylation of the consensus site serines in the antigen preparation of Example 2; biotin on primary amines in the SPR assay).
T1 construct: mature; also called VE7_HPV18; not shown: N-terminal 6x Histidine tag and TEV cleavage site of the vector
T1 sequence: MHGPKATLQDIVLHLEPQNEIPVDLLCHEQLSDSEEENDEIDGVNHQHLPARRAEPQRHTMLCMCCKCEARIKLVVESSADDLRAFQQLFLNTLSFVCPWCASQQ
As to the kind of experiment: SPR (BIAcore X100), biotin-E7 on streptavidin SA chip, antibody as analyte, bivalent analyte fit, 25 C.

Test [2] deals with T2, HPV45 E7 protein, recombinant (His-TEV-E7 fusion from E. coli) (Human Papilloma Virus type 45 (HPV45), UniProt P21736 1-106, CKII phosphorylation of the consensus site serines in the antigen preparation of Example 2; biotin on primary amines in the SPR assay).
T2 construct: mature; also called VE7_HPV45; not shown: N-terminal 6x Histidine tag and TEV cleavage site of the vector
T2 sequence: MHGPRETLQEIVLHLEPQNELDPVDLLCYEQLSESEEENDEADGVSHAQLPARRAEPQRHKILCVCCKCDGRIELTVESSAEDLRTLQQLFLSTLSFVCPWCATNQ
The description is as above.

In test [3] the target is T3, HPV58 E7 protein, recombinant (His-TEV-E7 fusion from E. coli) (Human Papilloma Virus type 58 (HPV58), UniProt P26557 1-98, CKII phosphorylation of the consensus site serines in the antigen preparation of Example 2).
T3 construct: mature; also called VE7_HPV58; not shown: N-terminal 6x Histidine tag and TEV cleavage site of the vector
T3 sequence: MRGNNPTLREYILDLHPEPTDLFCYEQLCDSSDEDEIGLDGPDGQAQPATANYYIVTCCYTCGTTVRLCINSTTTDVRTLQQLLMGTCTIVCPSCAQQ
As to the kind of experiment: ELISA, HPV58E7 immobilised on polystyrene plates in 3-fold dilution steps, detected with ACAB452.

Test [4] has as its target T4, HPV51 E7 protein, recombinant (His-TEV-E7 fusion from E. coli) (Human Papilloma Virus type 51 (HPV51), UniProt P26558 1-101, CKII phosphorylation of the consensus site serines in the antigen preparation of Example 2).
T4 construct: mature; also called VE7_HPV51; not shown: N-terminal 6x Histidine tag and TEV cleavage site of the vector
T4 sequence: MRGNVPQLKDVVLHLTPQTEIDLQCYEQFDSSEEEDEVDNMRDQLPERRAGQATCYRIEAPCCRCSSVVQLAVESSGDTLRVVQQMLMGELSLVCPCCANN
As to the kind of experiment: ELISA and dot-blot, semiquantitative crossreactivity (++ strong positive).

Test [5] has as its target T5, HPV39 E7 protein, recombinant (His-TEV-E7 fusion from E. coli) (Human Papilloma Virus type 39 (HPV39), UniProt P24837 1-109, CKII phosphorylation of the consensus site serine in the antigen preparation of Example 2).
T5 construct: mature; also called VE7_HPV39; not shown: N-terminal 6x Histidine tag and TEV cleavage site of the vector
T5 sequence: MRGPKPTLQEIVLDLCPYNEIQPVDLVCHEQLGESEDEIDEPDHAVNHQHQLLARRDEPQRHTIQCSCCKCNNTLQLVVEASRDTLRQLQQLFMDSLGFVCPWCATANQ
Described as above.

For test [6], the target named is T6, HPV56 E7 protein, recombinant (His-TEV-E7 fusion from E. coli) (Human Papilloma Virus type 56 (HPV56), UniProt P36833 1-105, CKII phosphorylation of the consensus site serines in the antigen preparation of Example 2).
T6 construct: mature; also called VE7_HPV56; not shown: N-terminal 6x Histidine tag and TEV cleavage site of the vector
T6 sequence: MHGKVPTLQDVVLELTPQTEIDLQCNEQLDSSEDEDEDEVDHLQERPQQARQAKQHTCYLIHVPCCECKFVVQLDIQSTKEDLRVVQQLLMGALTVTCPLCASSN
The test is described as above.

In test [7] the target is T4, HPV51 E7 protein, recombinant …. The test is described as follows: ELISA and dot-blot, semiquantitative crossreactivity.
Description: (§1) Using ELISA and dot-blot techniques semiquantitative crossreactivities of the isolated mAbs was analysed. For this various mAbs were tested against the accepted high risk species.
In test [8] the target is T5, HPV39 E7 protein, recombinant …. Described as above.
Description: as §1
Test [9] deals with T6, HPV56 E7 protein, recombinant …. The test is described as above.
Description: as §1
In test [10] the target is T3, HPV58 E7 protein, recombinant …. As to the kind of experiment: ELISA and dot-blot, semiquantitative crossreactivity (++ strong positive).
Description: as §1
Test [11] has as its target T7, HPV35 E7 protein, recombinant (His-TEV-E7 fusion from E. coli) (Human Papilloma Virus type 35 (HPV35), UniProt P27230 1-99, CKII phosphorylation of the consensus site serines in the antigen preparation of Example 2).
T7 construct: mature; also called VE7_HPV35; not shown: N-terminal 6x Histidine tag and TEV cleavage site of the vector
T7 sequence: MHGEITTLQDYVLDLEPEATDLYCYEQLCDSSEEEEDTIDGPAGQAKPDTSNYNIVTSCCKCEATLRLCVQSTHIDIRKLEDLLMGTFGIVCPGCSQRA
The description is as above.

B1: ACAB452 (antibody, IgG1, V domains shown)
VH: DVQLQESGPGLVKPSQSLSLTCTVTGYSITSDYAWNWIRQFPGNKLEWVGYITYSGSTNYNPSLKSRISITRDTSKNQFFLQFNSVTSEDTATYFCARSWFAYWGQGTLVTVSS
VL: DIVMTQTPLSLPVSLGDQASISCRSSQSLVHSNGNTYLHWFLQKPGQSPKLLIYKVSNRFSGVPDRFSGSGSGTDFTLKISRVEAEDLGVYFCLQSAHVPLTFGAGTKLELTR
notes: also called HPV45E7 IgG1 antibody ACAB452
Take B1: the figures for the kon in test [1] and in test [2] were 94700 M⁻¹ s⁻¹ and 52100 M⁻¹ s⁻¹, respectively. Also, the Kd in test [2] turned out to be 10.6 nM. The binding result in [3] is given as “no binding (tested: 800 nM immobilised antigen (per legend))”; in test [4], “binds”; in test [5], “binds”; in test [6] it was “binds”.

B2: ACAB161 (antibody, IgG2a, V domains shown)
VH: EVMLVESGGGLVKPGGSLKLSCAASGFTFSRYTMSWVRQTPEKRLEWVATISSGGTNTNYTDSVKGRFTISRDNAKNNLYLQMSSLRSEDTALYYCTRGVRRGDGYAMDYWGQGTSVTVSS
VL: DIVLTQAAPSVPVTPGESVSISCRSTKSLLHSNGNTYLYWFLQRPGQSPQALIYRTSNLASGVPDRFSGSGSGTAFTLRISRVEAEDVGVYYCMQHLEYPLTFGAGTKLELKR
notes: the printed entries run on into the first residues of the constant domains; also called HPV16E7 IgG2a antibody ACAB161
Turning to B2, the binding result in test [7], in test [8] and in test [9] was “no binding” each time.

B3: ACAB164 (antibody, V domains shown)
VH: EVQLQQSGLALVQPGASVKISCRTSGYTFTEYTLHWVKQSHGKSLEWIGGINPNNGSPKYNQKFKGKATLTVDKSSSTAYMELRSLTSEDSAVYYCARLDINSFFDYWGQGTTLTVSS
VL: DVVMTQSPLSLPVSLGDQASISCRSSQSLVHSNGNTYLQWYLQKPGQSPKLLIYKLSNRFSGVPDRFSGSGSGTDFTLKISRVEAEDLGVYSCSQTTHVPPTFGGGTKLEIKR
notes: the printed entries run on into the first residues of the constant domains; also called HPV16E7 IgG2a antibody ACAB164
On to B3, for which the binding result in test [7] is reported as “no binding”; in [8], “no binding”; in [9], “no binding”; in test [10], “binds”; in test [11], “binds”.
